{"source": "paper PMC3129650", "about": "(Journal of immunology (Baltimore, Md. : 1950), 2011)", "target": "T1, Native purified human beta2-glycoprotein I (β2GPI) (human, UniProt P02749 20-345)", "T1 sequence (looked up)": "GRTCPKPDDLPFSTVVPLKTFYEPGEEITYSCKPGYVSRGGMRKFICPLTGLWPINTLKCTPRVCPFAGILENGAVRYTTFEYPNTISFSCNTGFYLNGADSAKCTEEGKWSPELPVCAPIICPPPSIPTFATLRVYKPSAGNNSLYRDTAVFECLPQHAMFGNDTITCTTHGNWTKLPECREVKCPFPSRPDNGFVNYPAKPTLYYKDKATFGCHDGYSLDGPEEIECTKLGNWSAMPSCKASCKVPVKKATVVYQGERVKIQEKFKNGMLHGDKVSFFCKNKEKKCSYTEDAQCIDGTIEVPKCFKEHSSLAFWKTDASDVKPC", "test": "ELISA", "data": [{"binder": "MBP-Ro60 aa 82–244 (domain or fragment, biotin (Sulfo-NHS-Biotin)) not shown", "values": [{"measurement": "binding result", "value": "binds"}]}]}
